Measurements taken from the DeepSol protein solubility set.

Experiment: soluble on expression in E. coli; label from the status in PepcDB or PDB records

Row | Sequence | soluble on expression in E. coli
1 | MTEGDDQLISIRKQLENLNNATDDINSYEMKLETVKKQFCETQLMFNKEMLGIPKKLAKHISKSRQFFDLKSRESEIRRCVQQAAAQFERQKTSVEMAREQVQILHNSLNNNQELDAEKQYVDVIEQQLELVKEAEGECLKAEKCHASRVRDLLQLEMALRKCLEENGSAIKKSRPYYERKEVLTRTMNSQLELMSILEHEVQERKDSYSDSMRALEQISDQIHQERSSQSSLAPSSDAESDSS | not soluble
2 | MGSDKIHHHHHHMSTSVLYHAFNLKGITYRATRFTGDVIEYFADVKEEYIRCPKCGQRKFTFKGQKTRSFHLGPMGRKRCFLVLSLHRIKCNTCDTLWWPDLPFMVGKHRFARSFALIVLDLLRFGTIRWVADYLGVGWDMIKEIHKLKLQRLYRNIPLHKVRYIGIDEFSIRKGHEYMTTVMDLSEGRILYATEGKGKEGILPFLKKLARKGKKLRAVAMDMGISFFSAVREALPNIDVVFDRYHIMALMNQGIENLRRNHQKELDDTGKQTLKGNRFLLLRNYDSLKPDHKERLDALMQANQPLFVMHSMKEQLRLFWEIPEYAQAVTFLDTWCKDAMLSGIKELVKVAKTLSGYRTAILNYFKHHITNAALEGTNNKIKTLKRQAYGFRDMEYFKLRLYHLHTQRYSLTG | not soluble
3 | MITLFQFPAAFNVPNASPYCLKLETWLRLAGLEYQVKVVSDPRKAPKGKLPYVRIEGEAIGDSEIVIRTLGERYGVTLDAGLDARGKGWARAITRLCDEHLYYLMLYFRWFDEDSWRVLKPVFFGSLPFGVRDAVAWAMRRKVRATLRAQGLGVHGRDELLAFARDDLDALDGLLGQVPYYGGEHPCSADAAAYGILANLIEATLDTPLSHVARGYPRLVAYCERMRERVWSELEHHHHHH | soluble
4 | MTYKYNCCDDGSGTTVGSVVRFDNVTLLIDPGWNPSKVSYEQCIKYWEKVIPEIDVIILSQPTIECLGAHSLLYYNFTSHFISRIQVYATLPVINLGRVSTIDSYASAGVIGPYDTNKLDLEDIEISFDHIVPLKYSQLVDLRSRYDGLTLLAYNAGVCPGGSIWCISTYSEKLVYAKRWNHTRDNILNAASILDATGKPLSTLMRPSAIITTLDRFGSSQPFKKRSKIFKDTLKKGLSSDGSVIIPVDMSGKFLDLFTQVHELLFESTKINAHTQVPVLILSYARGRTLTYAKSMLEWLSPSLLKTWENRNNTSPFEIGSRIKIIAPNELSKYPGSKICFVSEVGALINEVIIKVGNSEKTTLILTKPSFECASSLDKILEIVEQDERNWKTFPEDGKSFLCDNYISIDTIKEEPLSKEETEAFKVQLKEKKRDRNKKILLVKRESKKLANGNAIIDDTNGERAMRNQDILVENVNGVPPIDHIMGGDEDDDEEEENDNLLNLLKDNSEKSAAKKNTEVPVDIIIQPSAASKHKMFPFNPAKIKKDDYGTVVDFTMFLPDDSDNVNQNSRKRPLKDGAKTTSPVNEEDNKNEEEDGYNMSDPISKRSKHRASRYSGFSGTGEAENFDNLDYLKIDKTLSKRTISTVNVQLKCSVVILNLQSLVDQRSASIIWPSLKSRKIVLSAPKQIQNEEITAKLIKKNIEVVNMPLNKIVEFS | soluble
5 | MELRIGFGFDSHEFVEGKLLILGGVEIEKDYGLKGHSDGDALLHAITDAILGALGERDIGEIFKDTDPRWKNAPSRIFLEKALEVMSEKGFNISNIDCVIVADRPKIAPHKERIKESLSKLLGIPKERISLKGKRREGFCEGNGLVCMCTVLLVKMLEHHHHHH | soluble
6 | MGSDKIHHHHHHMSSVSLQDFDAERIGLFHEDIKRKFDELKSKNLKLDLTRGKPSSEQLDFADELLALPGKGDFKAADGTDVRNYGGLDGIVDIRQIWADLLGVPVEQVLAGDASSLNIMFDVISWSYIFGNNDSVQPWSKEETVKWICPVPGYDRHFSITERFGFEMISVPMNEDGPDMDAVEELVKNPQVKGMWVVPVFSNPTGFTVTEDVAKRLSAMETAAPDFRVVWDNAYAVHTLTDEFPEVIDIVGLGEAAGNPNRFWAFTSTSKITLAGAGVSFFLTSAENRKWYTGHAGIRGIGPNKVNQLAHARYFGDAEGVRAVMRKHAASLAPKFNKVLEILDSRLAEYGVAQWTVPAGGYFISLDVVPGTASRVAELAKEAGIALTGAGSSYPLRQDPENKNLRLAPSLPPVEELEVAMDGVATCVLLAAAEHYAN | not soluble
7 | MSLVPAFPHSTSPTTTVIAVPPALSLPVIETDFPRQLHPYWPRLQEKTRSWLLEKRLMPADKVEEYADGLCYTDLMAGYYIGAPDEVLQAIADYSAWFFVWDDRHDRDVIHRRATAWRQLRFQLHTALDSPRDHLHHRDPLVAGFADSMVRLYSFLGKKWNARFACHFHAVIEAYDREFHNRTRGIVPTVEEYLELRRLTFAHRIWTDLLEPSARHEIPAGVREHPGYRRAALLSQEFAAWYNDLCSLPKEIAGDEVHNLGISLIHHEGLTLEEAVTEVRRRVEECIAEFLVAEKEAVHLADGLADGTRAGHELSDAVKACVANMRNWFSTVYWFHHESGRYRVDSWDDRSTPPYVNNEAAGEGHHHHHH | soluble
8 | MSFFDKVKGALTSGREELTRQVGRYKNKKFMQGTVAVCARIAVASDGVSSEEKQKMIGFLRSSEELKVFDTAEVIEFFNKLVTSFDFDLEIGKGETMKYILALKDQPEAAQLALRVGIAVAKSDGNFDDDEKSAVREIARSLGFDPAEFGLLE | soluble
9 | MGSDKIHHHHHHMPQLQTNNTALSTQQSAEMKTTRLLKVLKIMFPRENWTSQKLTSEVNVKGSGVYRFEHGTIAHLGQPGGPRTEHLWEMTVDRVWAKALIEAHNQAQESEALVRTQAEVYPKDWYGLRLRSPAEAAIAEALQTKGVLFFVNTGCRLHNHSKQYETREVDFLVFHQGKVRILEVDGITYHQNPLADYKRDRLFDREGIRTSRFSAQECFENPNGVVEEFLGLFKF | not soluble
10 | MGSDKIHHHHHHMETLRILHTNDLHSHFEHFPKIGRYLKKAQADNSVDEVYTFDAGDFMDRSHPLTDATEGQANIKLMNGFKYTAVTIGNNEGISNPHWVLEHLFDHADFPTVLANLREEDESMPNWAIGHKILTTKKNTRIALIGLTAAYPMTYGPNHWHVKMLGSTMDKELAKINGQYDMLILITHIGLKMDRWLAKNYPQIDLIVGGHSHDLIVQGEKVDHTWITQTGKWGNYVGDIHVELEDHHVTKIVPNTVATASMPEEPEDESVIKGYYEKGKQLLSERKVAKLPEKFADDKIAAVQVSLDAIADFAKTDLAILSSGLFLTPFKSGILTQFDLQNALPHPMHVVRSTLKGSDLWRLVMEIEKNRHYLDHFPLQGMSFRGKIFGQMYYKGIKVDMRKRIVYVNGQEINPDSEYRIACLDHYVLVPFFPTLAIVGENEFLFPQFLREVVGDYLAKKYPLPARSEIND | not soluble
11 | MTQFTTELLNFLAQKQDIDEFFRSSLETAMNDLLQVELSAFLGYEPYDKAGYNTGNSRNGAYTRRFETKYGVVNLLIPRDRNGEFSPALIPSYGRRDNHLEEMVIKLYRTGVTTREISDIIERMYGHHYSPATVSNISKATQENVASFHERSLEANYTVLYLDGTYLPLRRGTVSKECIHIALGVTSYGHKAILGYDIAPNENNASWSDLLERFKGQGVQQVSLVVSDGFNGLDQLIQQAFPMAKQQRCLVHIGRNIASKVKRADRALILEQFKTIYRAINVEEAKQALDSFINEWKPHYKKVIETLESIENLLIFYEFPHQIWGSIYSTNLIESLNKEIKRQTKKKVVFPNEESLERYLVTLFSDYNFKQGQRIHKGFGQCTDTLESLFD | not soluble
12 | MSLSNRAGEILIVEDSPTQAEHLKHILEETGYQTEHVRNGREAVRFLSLTRPDLIISDVLMPEMDGYALCRWLKGQPDLRTIPVILLTILSDPRDVVRSLECGADDFITKPCKDVVLASHVKRLLSGVKRTEERYSRESITLAFGNEGHHHHHH | soluble
13 | MGSDKIHHHHHHMTDLAPILAEADKALPQSLDRLFDLVRIASISTDPAYKADCRKAAEWLAQELKGLGFNASVRDTPGHPMVVGHHDADRPDAPHVLFYGHYDVQPVDPLDLWENDPFEPAIKEIEPGRKVITGRGTSDDKGQLMTFVEACRAYKAVHGGLPIKITILFEGEEESGSPSLKPFLAANEDELKCDFALVCDTGMWDRETPAIAAALRGLVGEEVTVTAADRDLHSGLFGGAAANPIHILAKVLADLHDETGRVTIDGFYEGVEETPVNIKASWEKLGRTADKFLNDVGLSIPSGETGRSVLELTWARPTAEVNGITGGYTGEGFKTVIASKASAKVSFRLVGEQDPAKIRENFRAFVKARIPGDCSVEFHEHGASPAIQLPYDSPFLTKAKSALSDEWPKPAEVIGMGGSIPIVGDFQTMLGMDSLLVGFGLVDDRIHSPNEKYELESFHKGIRSWIRILDALAH | not soluble
